Publication doi:10.1101/2025.04.23.649697, “Biomass-derived Lignin Nanoparticles for the Sustained Delivery of Vascular Endothelial Growth Factor-C” (bioRxiv, 2025)

Molecular target: the molecule itself
Assay: SEC; HiLoad 26/600 Superdex 200 pg in PBS, after IMAC; peaks identified using BSA as a molecular weight marker

B1: mature Vascular Endothelial Growth Factor C (dNdC-hVEGF-C-H6) (ligand, human, UniProt P49767 112-227, looked up)
chain: AHYNTEILKSIDNEWRKTQCMPREVCIDVGKEFGVATNTFFKPPCVSVYRCGGCCNSEGLQCMNTSTSYLSKTLFEITVPLSQGPKPVTISFANHTSCRCMSKLDVYRQVHSIIRR
notes: VEGF-C, human, dNdC form (called mature VEGFC); secreted with the BiP signal peptide of the vector pMT-Ex; SEC gave dimeric and monomeric species; The dimeric peak was collected and used for nanoparticle loading and the bioassays; also called mature VEGFC; purified mature VEGFC; not shown: His6 (H6 in the construct's name)
For B1, the “stoichiometry N” value was 2.
